Measured values: PMC9057587 (The Journal of Clinical Investigation, 2022)

Molecular target: T1, human Tim-3 (T cell immunoglobulin mucin domain-containing protein 3) (Homo sapiens, UniProt Q8TDQ0)
T1 construct: human Tim-3 (HAVCR2), injected as the SPR analyte; I surmise the monomeric IgV domain; also called hTim3; hTim-3
Test: SPR; Biacore T200, 37°C; antibody captured on a CM4 chip with preimmobilized anti-human IgG Fc pAb; human Tim-3 injected as analyte, single-cycle kinetics, 5-membered 5-fold dilution series, 1 uM top; 10 mM HEPES, 150 mM NaCl, 0.05% Tween 20, pH 7.4, 1 g/L BSA; 1:1 Langmuir model with mass transport
Conditions: both partners purified

T1 sequence (Q8TDQ0 22-301): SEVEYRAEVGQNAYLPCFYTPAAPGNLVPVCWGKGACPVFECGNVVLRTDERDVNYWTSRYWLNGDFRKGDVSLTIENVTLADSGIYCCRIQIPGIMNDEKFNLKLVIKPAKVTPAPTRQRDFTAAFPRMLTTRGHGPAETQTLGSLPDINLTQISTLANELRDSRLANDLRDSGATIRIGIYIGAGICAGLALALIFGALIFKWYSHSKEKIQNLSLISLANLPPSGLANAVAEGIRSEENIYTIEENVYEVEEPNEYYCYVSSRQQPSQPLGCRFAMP

B1: aTim-3.18 monoclonal antibody (antibody, V domains shown)
VH: QLQLQESGPGLVKPSETLSLTCTVSGGSISSRSYYWGWIRQPPGKGLEWIGSIYYSGFTYYQPSLKSRVTISVDTSKNQFSLKLSSVTAADTAVYYCATGGPYGDYAHWFEPWGQGTLVTVSS
VL: not shown
notes: Whole mAb from Bristol Myers Squibb, captured in SPR through an anti-human IgG Fc antibody; The isotype-matched control was an IgG4, so I surmise the mAb is a human IgG4; source: Expi293, transient transfection, purified (Protein A MabSelect SuRe)
B1 was tested, and the Kd was 1.8 nM, the koff was 0.0046 s⁻¹ and the kon was 2.6e+06 M⁻¹ s⁻¹.
